This passage reports Mean fluorescence intensity results from US20210155689A1 (SHANGHAI PHARMAEXPLORER, published 2021).

For test [1], the target named is T1, human LAG-3 on cells (HEK293-hLAG-3 stable cell line) (human, UniProt P18627 23-525).
T1 sequence: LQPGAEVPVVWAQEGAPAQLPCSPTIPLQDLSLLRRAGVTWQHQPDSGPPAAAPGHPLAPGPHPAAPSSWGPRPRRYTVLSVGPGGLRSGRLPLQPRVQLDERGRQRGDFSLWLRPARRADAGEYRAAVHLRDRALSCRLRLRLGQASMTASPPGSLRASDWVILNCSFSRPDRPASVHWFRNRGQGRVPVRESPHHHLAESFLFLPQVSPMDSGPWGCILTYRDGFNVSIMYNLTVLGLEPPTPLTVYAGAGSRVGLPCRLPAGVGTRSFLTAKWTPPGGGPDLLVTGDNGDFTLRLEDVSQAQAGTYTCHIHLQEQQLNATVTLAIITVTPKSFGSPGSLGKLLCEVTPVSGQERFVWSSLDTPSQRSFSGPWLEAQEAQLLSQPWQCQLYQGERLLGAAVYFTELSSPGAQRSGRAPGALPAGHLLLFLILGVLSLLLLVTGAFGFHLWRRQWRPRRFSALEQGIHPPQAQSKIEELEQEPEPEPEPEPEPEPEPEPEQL
Kind of test: FACS, HEK293-hLAG-3, antibody 8.000 nM. An excerpt:
(§1) The pIRES plasmid with the monkey-derived full-length gene was transfected into the HEK293 cell line to construct a HEK293 stable cell line containing monkey LAG-3 (herein referred to as HEK293-cLAG-3 stable cell line). The HEK293-hLAG-3 stable cell line and HEK293-cLAG-3 stable cell line were expanded in a T-75 cell culture flask to a 90% confluence. The medium was aspirated, and the cells were washed with HBSS (Hanks' Balanced Salt Solution) 1-2 times, then treated with a enzyme-free cell dissociation fluid (Versene solution: Life technology) and the cells were collected. The cells were washed with HBSS buffer for 1-2 times. After counted, the cells were diluted with HBSS to 1-2×10⁶ cells per ml, added with 1% goat serum blocking solution, incubated on ice for 20-30 minutes, and then washed with HBSS for 2 times by centrifugation. The collected cells were suspended in the FACS buffer (HBSS+1% BSA) to 2×10⁶ cells/ml, added as 100 microliters per well to a 96-well FACS reaction plate, added with 100 microliters per well of the antibody sample to be tested, incubated on ice for 1-2 hours. The plate was washed twice with the FACS buffer by centrifugation, added with 100 microliters of fluorescent (Alexa 488)-labeled secondary antibodies per well, and incubated on ice for 0.5-1.0 hours. The plate was washed 2-3 times with FACS buffer by centrifugation, added with 100 μl fixative solution (4% Paraformaldehyde) per well to suspend the cells. 5-10 minutes later, it was washed 1-2 times with FACS buffer by centrifugation. The cells were suspended with 100 microliters of FACS buffer, FACS (FACSCalibur, BD) was used for detection and the results were analyzed.
In general terms: In flow cytometry, cells or beads pass a laser one at a time.

The target of test [2] is T2, monkey LAG-3 on cells (HEK293-cLAG-3 stable cell line) (monkey, UniProt P18627 24-525 (human entry)).
T2 construct: Full-length monkey (Chinese monkey) LAG-3 gene expressed on HEK293 cells
T2 chain: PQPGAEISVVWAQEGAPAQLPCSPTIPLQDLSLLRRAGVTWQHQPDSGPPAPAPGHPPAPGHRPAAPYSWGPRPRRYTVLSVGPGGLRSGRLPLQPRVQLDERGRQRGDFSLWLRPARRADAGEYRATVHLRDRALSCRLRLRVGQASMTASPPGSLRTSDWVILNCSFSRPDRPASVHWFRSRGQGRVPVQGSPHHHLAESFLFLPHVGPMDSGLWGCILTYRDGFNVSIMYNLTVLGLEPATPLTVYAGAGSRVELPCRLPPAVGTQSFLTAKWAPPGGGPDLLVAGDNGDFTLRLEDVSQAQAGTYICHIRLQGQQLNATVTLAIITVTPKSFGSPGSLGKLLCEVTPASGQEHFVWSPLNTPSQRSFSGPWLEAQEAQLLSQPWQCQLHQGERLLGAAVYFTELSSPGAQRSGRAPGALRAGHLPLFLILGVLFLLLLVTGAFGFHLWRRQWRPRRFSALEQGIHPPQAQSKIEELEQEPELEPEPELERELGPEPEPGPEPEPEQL
Kind of test: FACS, HEK293-cLAG-3, antibody 1.600 nM.
Text: as §1

The target of test [3] is T2, monkey LAG-3 on cells (HEK293-cLAG-3 …). The test can be described thus: FACS, HEK293-cLAG-3, antibody 8.000 nM.
Text: as §1

The target in test [4] is T3, human LAG-3 (full length, on the cell surface) (human, UniProt P18627 23-525).
T3 construct: Full-length human LAG-3 expressed on cells; also called HEK293-hLAG-3; HEK293 cells transfected with LAG-3 gene
T3 sequence: T1 sequence
The test can be described thus: FACS, HEK293-hLAG-3; 0.064 nM.
Text: as §1

For test [5], the target named is T4, monkey LAG-3 (full length, on the cell surface) (monkey, UniProt P18627 24-525 (human entry)).
T4 construct: also called HEK293-cLAG-3; monkey LAG-3 protein on the cell surface
T4 chain: T2 chain
The test can be described thus: FACS, HEK293-cLAG-3; 0.320 nM.
Text: as §1

The target of test [6] is T4, monkey LAG-3 (full length, on the cell …). Kind of test: FACS, HEK293-cLAG-3; 200.000 nM.
Text: as §1

Numbering of substitutions follows the chain as printed.

B1: 556F6B8 mouse-human chimeric antibody (antibody, V domains shown)
VH: RVQLKQSGPGLVQPSQSLSITCTVSGFSLIKYGVHWVRQSPGEGLEWLGVIWRGGITDYNAAFMSRLSITKDNSKSQVFFKMNSLQADDTAIYYCAKWDGPLAMDYWGQGTSVTVSS
VL: DIVMTQSHKFLSTSVGDRVSITCKASQDVGTTVAWYQQKPGQSPKLLIYWASTRHTGVPDRFTGSGSGTDFTLTISNVQSEDLADYFCQQYSSYPYTFGGGTKLEIK
notes: also called mAb123-556F6B8; 556F8B8
For the molecule B1, the Mean fluorescence intensity is 93.5 in test [1], 19.2 in test [2] and 42.5 in test [3].

B2: 556F6B8 (mouse antibody purified from hybridoma) (antibody, V domains shown)
VH: B1 VH
VL: B1 VL
notes: also called mAb123-556F6B8
In the case of B2, the results for the Mean fluorescence intensity in test [4], in test [5] and in test [6] were 6.8 MFI, 9.8 MFI and 52.2 MFI, respectively.

B3: 405B8H3 (mouse antibody purified from hybridoma) (antibody, V domains shown)
VH: QVQLQQSGAELVRPGASVTLSCKASGYTFTDYEMHWVKQTPVHGLEWIGATDPETGNSAYNQKFKGKAIMTADKSSSTAYMELRSLTSEDSAVYYCISTGWNDWGQGTSLTVSS
VL: DIKMTQSPSSMYASLGERVTITCKASQDINSYLSWFQQKPGKSPKTLIYRADRLLDGVPSRFSGSGSGQDYSLTISSLEYGDMGIYYCLQYDEFPYTFGGGTKLEIK
notes: also called mAb103-405B8H3; 405B81-13
On to B3, for which the Mean fluorescence intensity in test [4] is 8.7 MFI; in test [5] it was 8 MFI; in test [6], 139 MFI.

B4: 105F1E10 (mouse antibody purified from hybridoma) (antibody, V domains shown)
VH: EVQLQQSGPELVKPGASVKMSCRASGYTFTDFKMHWMKQSHGKSLEWIGYIAPNNGGTAYNQKFRGKATLTVNESSNTAYMELRSLTSEDSAVYYCVDWDDVDYWGQGTTLTVSS
VL: B3 VL with P40S, D52N, L55V, G81E, D92V, Y96L, G100A, I106L
notes: also called mAb009-105F1E10
As to B4, the Mean fluorescence intensity amounted to 8.6 MFI in test [4], 6.6 MFI in test [5] and 120 MFI in test [6].

B5: 105F1E10 mouse-human chimeric antibody (antibody, V domains shown)
VH: B4 VH
VL: B3 VL with P40S, D52N, L55V, G81E, D92V, Y96L, G100A, I106L
notes: also called mAb009-105F1E10
With B5, the Mean fluorescence intensity in test [1] was 99.4; in test [2], 14.7; in test [3] it was 37.9.

B6: 405B8H3 mouse-human chimeric antibody (antibody, V domains shown)
VH: B3 VH
VL: B3 VL
notes: also called mAb103-405B8H3
Consider B6, for which the Mean fluorescence intensity in test [1] amounted to 137; in test [2] it was 29.4; in test [3], 69.3.

B7: 409D4E10 mouse-human chimeric antibody (antibody, V domains shown)
VH: B3 VH with Y27N, G56D, S58T, M70L, A72T, S98T, T99S
VL: B3 VL with D52N, G81E, D92N
notes: also called mAb112-409D4E10
For B7, the results for the Mean fluorescence intensity in test [1], in test [2] and in test [3] were 129, 25.8 and 61.5, respectively.

B8: 409D4E10 (mouse antibody purified from hybridoma) (antibody, V domains shown)
VH: B3 VH with Y27N, G56D, S58T, M70L, A72T, S98T, T99S
VL: B3 VL with D52N, G81E, D92N
notes: also called mAb112-409D4E10
For B8, the Mean fluorescence intensity came to 4.9 MFI in test [4], 11.5 MFI in test [5] and 153 MFI in test [6].

B9: 409B11E12 (mouse antibody purified from hybridoma) (antibody, V domains shown)
VH: B3 VH with P41T, G56S, N57Y, M70L, S98A
VL: B3 VL with I2L, D52N, G81E
notes: also called mAb104-409B11E12
B9: the values for the Mean fluorescence intensity in test [4], in test [5] and in test [6] were 5 MFI, 8 MFI and 134 MFI, respectively.

B10: 409B11E12 mouse-human chimeric antibody (antibody, V domains shown)
VH: B3 VH with P41T, G56S, N57Y, M70L, S98A
VL: B3 VL with I2L, D52N, G81E
notes: also called mAb104-409B11E12
Consider B10, for which the Mean fluorescence intensity in test [1] came out at 136; in test [2], 32.8; in test [3], 73.1.
